Laboratory results: paper PMC3918441 (Cell reports, 2014)

How the values were obtained:
human KDM5D PHD1 finger = human KDM5D PHD1 finger (human, Zn2+-bound; 15N-labelled); experiment: NMR titration
yeast KDM5 PHD finger = target: T1, yeast KDM5 PHD finger (S. cerevisiae, Zn2+-bound; 15N-labelled); experiment: NMR titration
T1 chain: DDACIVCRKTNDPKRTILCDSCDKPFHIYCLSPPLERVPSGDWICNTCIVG

Kd (human KDM5D PHD1 finger): 3500 µM | Kd (yeast KDM5 PHD finger): 117 µM
Binder: ARTKQTARKSTG (peptide, UniProt P68431 2-13, looked up) [H3K4me0 peptide (aa 1-12 of H3)]
